One block for each binder: values may come before it.
What was measured:
Human plasma fibronectin = molecular target: T1, Human plasma fibronectin (human, UniProt P02751 32-2477, Alexa^488 label where used as FN^488); experiment: Alexa488-fibronectin added to cell-free wells coated with 400 nM mimetic; fluorescence after 20 h
T1 construct: Used coated on plastic at 10 nM, or soluble at 10 µg/ml, unlabeled or Alexa488-labeled; also called full-length fibronectin; FN

[1] = molecular target: T2, FITC-labeled type I collagen (rat, UniProt P02454 152-1207; P02466 86-1125, FITC label); experiment: FITC-collagen I added to cell-free, fibronectin-free wells coated with 400 nM mimetic; fluorescence after 20 h
T2 construct: also called FITC-collagen I; collagen I
Method: FIGS. 14A-14C show collagen I deposition by cells adherent to matrix mimetics. FN-null MEFs were seeded (3.0×10⁴ cells/cm²) on tissue culture plates pre-coated with matrix mimetics (400 nM). Four hours after seeding, cells were treated with fibronectin (10 μg/ml) and FITC-collagen I (10 μg/ml) for 20 h. In FIG. 14A, control wells received either FITC-collagen I only (+cell, −FN) or FITC collagen I in the absence of both cells and fibronectin (−cells, −FN). […] In FIG. 14B, cells were processed for immunofluorescence microscopy and stained using an antibody against fibronectin. Images represent 1 of 3 experiments. Bar=10 μm. Four hours after seeding, cells were treated with fibronectin (10 μg/ml) and FITC-collagen I ([…]) in the presence of either R1R2 (250 nM) or FNIII11C (250 nM).
The deposition of collagen I into the ECM is dependent on the co-assembly of a fibronectin matrix (Sottile et al., “Fibronectin Polymerization Regulates the Composition and Stability of Extracellular Matrix Fibrils and Cell-Matrix Adhesions,” Mol. Biol. Cell. 13(10):3546-3559 (2002), which is hereby incorporated by reference in its entirety). […] FITC-collagen I deposition was quantified 20 h after fibronectin and collagen addition.

[2] = molecular target: T3, α5β1 integrin on mouse embryonic fibronectin-null fibroblasts (mouse, UniProt P11688 45-1053; P09055 21-798); experiment: immunofluorescence of α5 integrin clustering in FN-null MEFs adherent for 4 h to coated substrate
T3 construct: whole, on cells; Endogenous integrin on FN-null MEFs; also called α5β1 integrins; a5β1 integrin
Method: FIGS. 16A-16C show substrate-dependent ligation and clustering of α5β1 integrins. FN-null MEFs were seeded at a density of 2.5×10³ cells/cm² (FIG. 16A) or 3×10⁴ cells/cm² (FIG. 16B) onto tissue culture plates precoated with 400 nM of the various fibronectin matrix mimetics or 10 nM full-length fibronectin and allowed to adhere and spread for 4 h. In FIG. 16A, cells were processed for immunofluorescence microscopy and stained using antibodies against α5 integrin and vinculin. Images represent 1 of 3 experiments. Bar=10 μm. In FIG. 16B, cell surface proteins bound to the adhesive substrates were cross-linked using bis(sulfosuccinimidyl)suberate (BS³). Unbound proteins were extracted and […]. α5 integrins were analyzed by immunoblotting.
The preceding Examples therefore indicate that upon adhesion to GST/III1H,8-10, α5β1 integrins preferentially engage the adhesive substrate instead of soluble fibronectin, thus inhibiting the initiation of the matrix assembly process. To assess α5β1 integrin clustering in response to substrate adhesion, FN-null MEFs were allowed to adhere and spread for 4 h on plates pre-coated with saturating densities of matrix mimetics in the absence of soluble fibronectin. α5β1 integrins were visualized by immunofluorescence microscopy. […]

T1 sequence (P02751 other isoform, or with tags, fused parts or gaps): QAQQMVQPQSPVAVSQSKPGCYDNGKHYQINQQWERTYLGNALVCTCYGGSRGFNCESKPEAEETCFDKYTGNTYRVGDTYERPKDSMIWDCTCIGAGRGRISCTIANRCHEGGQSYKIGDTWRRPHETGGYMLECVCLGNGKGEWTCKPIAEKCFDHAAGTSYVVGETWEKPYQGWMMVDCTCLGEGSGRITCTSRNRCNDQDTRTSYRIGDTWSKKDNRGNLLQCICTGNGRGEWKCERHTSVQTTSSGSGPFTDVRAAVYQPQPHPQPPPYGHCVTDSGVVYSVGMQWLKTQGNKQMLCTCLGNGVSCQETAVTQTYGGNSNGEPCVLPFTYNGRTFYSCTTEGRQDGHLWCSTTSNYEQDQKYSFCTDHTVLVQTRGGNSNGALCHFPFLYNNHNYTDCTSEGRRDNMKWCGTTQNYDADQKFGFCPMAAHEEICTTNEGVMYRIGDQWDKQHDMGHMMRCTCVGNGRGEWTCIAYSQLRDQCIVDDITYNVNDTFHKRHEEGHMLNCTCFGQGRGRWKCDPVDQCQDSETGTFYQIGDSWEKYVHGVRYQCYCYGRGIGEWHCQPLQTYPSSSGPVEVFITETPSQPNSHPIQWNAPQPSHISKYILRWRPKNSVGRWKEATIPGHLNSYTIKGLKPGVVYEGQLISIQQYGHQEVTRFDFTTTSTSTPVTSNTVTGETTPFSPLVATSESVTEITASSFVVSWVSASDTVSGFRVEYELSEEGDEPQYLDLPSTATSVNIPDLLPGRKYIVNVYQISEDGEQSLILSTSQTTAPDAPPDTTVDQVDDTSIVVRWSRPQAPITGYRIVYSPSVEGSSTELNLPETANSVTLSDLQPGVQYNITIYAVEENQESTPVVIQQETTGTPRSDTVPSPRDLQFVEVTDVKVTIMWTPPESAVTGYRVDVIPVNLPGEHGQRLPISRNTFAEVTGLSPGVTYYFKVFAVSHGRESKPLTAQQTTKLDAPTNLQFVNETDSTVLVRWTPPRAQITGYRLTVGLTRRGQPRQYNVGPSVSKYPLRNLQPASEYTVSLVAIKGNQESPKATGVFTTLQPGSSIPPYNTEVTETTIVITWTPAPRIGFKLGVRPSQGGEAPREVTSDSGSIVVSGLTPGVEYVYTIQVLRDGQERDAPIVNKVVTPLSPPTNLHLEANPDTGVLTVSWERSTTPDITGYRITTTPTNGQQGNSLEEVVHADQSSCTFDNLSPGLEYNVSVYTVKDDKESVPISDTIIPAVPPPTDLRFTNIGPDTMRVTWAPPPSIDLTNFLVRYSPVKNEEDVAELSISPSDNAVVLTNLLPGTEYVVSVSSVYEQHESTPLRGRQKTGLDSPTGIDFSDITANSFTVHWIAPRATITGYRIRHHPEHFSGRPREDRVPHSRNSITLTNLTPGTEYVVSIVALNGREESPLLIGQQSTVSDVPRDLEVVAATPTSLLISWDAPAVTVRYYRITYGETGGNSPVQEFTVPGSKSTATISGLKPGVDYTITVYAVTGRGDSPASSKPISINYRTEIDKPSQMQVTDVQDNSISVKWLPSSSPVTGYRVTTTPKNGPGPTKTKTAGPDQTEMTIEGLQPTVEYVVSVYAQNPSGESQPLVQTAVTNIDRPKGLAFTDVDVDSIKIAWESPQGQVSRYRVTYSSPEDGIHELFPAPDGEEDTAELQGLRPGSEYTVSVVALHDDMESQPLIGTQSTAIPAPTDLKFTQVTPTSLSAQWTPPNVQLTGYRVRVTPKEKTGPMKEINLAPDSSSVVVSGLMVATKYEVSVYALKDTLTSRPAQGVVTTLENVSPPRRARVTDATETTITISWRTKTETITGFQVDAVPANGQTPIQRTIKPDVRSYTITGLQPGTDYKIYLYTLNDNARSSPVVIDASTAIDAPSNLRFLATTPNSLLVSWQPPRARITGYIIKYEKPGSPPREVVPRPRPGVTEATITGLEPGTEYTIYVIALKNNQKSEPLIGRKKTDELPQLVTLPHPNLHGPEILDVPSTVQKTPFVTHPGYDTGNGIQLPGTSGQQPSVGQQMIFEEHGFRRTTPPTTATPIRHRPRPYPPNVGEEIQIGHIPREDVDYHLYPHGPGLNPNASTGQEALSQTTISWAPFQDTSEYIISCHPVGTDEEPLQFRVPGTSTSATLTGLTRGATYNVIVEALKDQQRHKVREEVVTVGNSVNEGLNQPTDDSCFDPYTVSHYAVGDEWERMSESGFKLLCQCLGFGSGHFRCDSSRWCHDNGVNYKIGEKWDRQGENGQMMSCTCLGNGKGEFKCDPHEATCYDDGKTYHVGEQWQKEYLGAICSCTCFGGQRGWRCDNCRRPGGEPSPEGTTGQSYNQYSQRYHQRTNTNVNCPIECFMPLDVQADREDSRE
T2 sequence (P02454 152-1207, chain 1 of 2): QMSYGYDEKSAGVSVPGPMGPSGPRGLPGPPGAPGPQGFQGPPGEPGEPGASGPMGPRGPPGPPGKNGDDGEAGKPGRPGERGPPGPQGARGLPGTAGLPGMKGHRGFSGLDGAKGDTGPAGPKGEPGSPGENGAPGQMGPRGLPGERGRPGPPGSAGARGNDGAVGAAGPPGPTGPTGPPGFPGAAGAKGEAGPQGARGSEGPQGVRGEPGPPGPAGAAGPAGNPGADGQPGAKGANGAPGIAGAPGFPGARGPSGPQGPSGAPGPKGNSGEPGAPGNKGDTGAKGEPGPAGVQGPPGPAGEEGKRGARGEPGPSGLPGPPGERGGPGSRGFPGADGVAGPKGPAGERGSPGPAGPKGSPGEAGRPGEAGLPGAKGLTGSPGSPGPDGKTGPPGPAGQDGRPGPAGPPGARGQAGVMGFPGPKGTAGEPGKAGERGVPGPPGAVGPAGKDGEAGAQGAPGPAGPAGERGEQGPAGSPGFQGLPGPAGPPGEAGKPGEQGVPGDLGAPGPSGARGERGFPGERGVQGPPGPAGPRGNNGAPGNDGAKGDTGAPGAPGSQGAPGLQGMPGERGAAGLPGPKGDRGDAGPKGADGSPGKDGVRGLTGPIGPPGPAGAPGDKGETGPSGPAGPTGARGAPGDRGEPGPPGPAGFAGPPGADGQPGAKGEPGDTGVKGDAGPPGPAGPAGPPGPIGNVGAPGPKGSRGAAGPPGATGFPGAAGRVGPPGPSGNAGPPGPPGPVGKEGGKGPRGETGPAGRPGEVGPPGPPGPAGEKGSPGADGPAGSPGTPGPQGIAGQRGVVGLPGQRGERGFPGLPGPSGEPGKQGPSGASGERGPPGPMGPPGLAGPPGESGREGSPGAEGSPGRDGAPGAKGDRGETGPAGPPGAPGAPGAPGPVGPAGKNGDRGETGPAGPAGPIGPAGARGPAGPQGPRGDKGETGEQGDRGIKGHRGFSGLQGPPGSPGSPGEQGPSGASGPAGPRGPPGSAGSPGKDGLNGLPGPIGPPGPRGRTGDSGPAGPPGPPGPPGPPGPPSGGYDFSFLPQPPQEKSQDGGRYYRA
T2 sequence (P02466 86-1125, chain 2 of 2): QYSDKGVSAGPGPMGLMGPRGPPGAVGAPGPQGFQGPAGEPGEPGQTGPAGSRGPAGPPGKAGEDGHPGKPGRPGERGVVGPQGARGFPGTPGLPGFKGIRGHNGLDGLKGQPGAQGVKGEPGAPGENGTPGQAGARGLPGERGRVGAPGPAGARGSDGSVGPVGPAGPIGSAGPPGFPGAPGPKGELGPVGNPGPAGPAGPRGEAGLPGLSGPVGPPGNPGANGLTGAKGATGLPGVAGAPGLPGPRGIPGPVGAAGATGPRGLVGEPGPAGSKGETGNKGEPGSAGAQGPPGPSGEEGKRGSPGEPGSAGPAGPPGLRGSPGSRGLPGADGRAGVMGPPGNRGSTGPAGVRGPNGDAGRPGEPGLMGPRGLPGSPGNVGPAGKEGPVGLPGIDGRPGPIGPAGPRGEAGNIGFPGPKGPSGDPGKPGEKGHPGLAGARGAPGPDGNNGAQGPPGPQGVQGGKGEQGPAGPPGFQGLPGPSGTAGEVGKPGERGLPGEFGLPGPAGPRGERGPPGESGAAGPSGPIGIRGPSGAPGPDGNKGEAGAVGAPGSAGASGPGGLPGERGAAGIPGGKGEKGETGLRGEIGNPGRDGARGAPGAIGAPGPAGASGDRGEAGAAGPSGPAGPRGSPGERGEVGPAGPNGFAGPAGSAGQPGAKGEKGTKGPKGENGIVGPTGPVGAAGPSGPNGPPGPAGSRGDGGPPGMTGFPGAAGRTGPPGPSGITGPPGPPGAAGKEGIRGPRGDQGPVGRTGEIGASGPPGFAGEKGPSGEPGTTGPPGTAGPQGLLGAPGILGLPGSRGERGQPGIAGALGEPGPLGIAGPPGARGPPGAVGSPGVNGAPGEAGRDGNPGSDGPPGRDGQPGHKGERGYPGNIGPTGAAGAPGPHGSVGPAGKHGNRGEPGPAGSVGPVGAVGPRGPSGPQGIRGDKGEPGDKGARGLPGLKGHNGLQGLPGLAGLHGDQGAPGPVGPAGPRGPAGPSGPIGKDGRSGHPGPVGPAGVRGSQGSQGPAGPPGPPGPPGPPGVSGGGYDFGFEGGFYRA

binding result (Human plasma fibronectin): no binding (tested: 10 µg/ml)
binding result [1]: no binding (tested: 10 µg/ml)
B1: GST/III1H,8,10 (other)
chain: IQWNAPQPSHISKYILRWRPKNSVGRWKEATIPGHLNSYTIKGLKPGVVYEGQLISIQQYGHQEVTRFDFTTTSTSTAVPPPTDLRFTNIGPDTMRVTWAPPPSIDLTNFLVRYSPVKNEEDVAELSISPSDNAVVLTNLLPGTEYVVSVSSVYEQHESTPLRGRQKTVSDVPRDLEVVAATPTSLLISWDAPAVTVRYYRITYGETGGNSPVQEFTVPGSKSTATISGLKPGVDYTITVYAVTGRGDSPASSKPISI
notes: Coated on tissue culture plastic in the assays; also called FNIII1H,8,10; not shown: glutathione S-transferase (GST) tag encoded by vector pGEX-2T (Amersham Biosciences)

binding result (Human plasma fibronectin): no binding (tested: 10 µg/ml)
binding result [1]: no binding (tested: 10 µg/ml)
binding result [2]: no binding (tested: 400 nM coating)
B2: GST/III1H,8^RGD (other)
chain: IQWNAPQPSHISKYILRWRPKNSVGRWKEATIPGHLNSYTIKGLKPGVVYEGQLISIQQYGHQEVTRFDFTTTSTSTAVPPPTDLRFTNIGPDTMRVTWAPPPSIDLTNFLVRYSPVKNEEDVAELSISPSDNAVVLTNLLPGTEYVVSVSSVYGRGDSPASSTPLRGRQKT
notes: Coated on tissue culture plastic in the assays; also called FNIII1H,8^RGD; not shown: glutathione S-transferase (GST) tag encoded by vector pGEX-2T (Amersham Biosciences)

Source: US20150283214A1 (UNIVERSITY OF ROCHESTER, published 2015)
